Tests used:
[1] = target: N2β1α1C1, recombinant purified (the MxDnaK1 chimera with the MxDnaK2 NBD) (Myxococcus xanthus DK1622); assay: SDS-PAGE of the purified protein (monomer and dimer bands); purified MxDnaKs and chimeras on SDS-PAGE, without DTT treatment; monomer (1×) and dimer (2×) bands
[2] = target: the molecule itself; assay: as above

Row | oligomer state on SDS-PAGE (subunits per band) [1] | Molecule | stoichiometry N [2]
1 | 2 | N2β1α1C1, recombinant purified (the MxDnaK1 chimera with the MxDnaK2 NBD) | –
2 | – | His6-MxDnaK2 (natural protein, Myxococcus xanthus DK1622, UniProt P95334 1-607, looked up, MxDnaK2 (MXAN_6671) of Myxococcus xanthus DK1622; the gene was amplified from genomic DNA and cloned into pET28a; His6-MxDnaK2 printed as 65.3 kDa; also called MxDnaK2, recombinant purified; source: E. coli BL21 (DE3), purified (Ni-NTA); not shown: His6, N-terminal, kept) MGKVIGIDLGTTNSCVAVMEGGEPVVIPNSEGSRTTPSMVGFTDSGERLVGQIAKRQAITNPENTVFAAKRLIGRKFDSPEGKKAIGVSPFKVASSPNGDAWVEIRGKGYSPPEVSAIVLMKMKQTAEDYLGEQVSEAVITVPAYFNDSQRQATKDAGRIAGLSVLRIINEPTAAALAYGLDKVQDGGTERIAVYDLGGGTFDISILELNAGVFEVKSTNGDTFLGGEDFDQRLIDYLAKRFAESNNGLDLRKDRMALQRLKEAAERAKHELSSAPETEVNLPFITADASGPKHLTETVDRATFEALVTDLIDRTIEPCRIALKDAGIPAQQINQVLLVGGMTRMPRVQQKVKEFFGREPHKGINPDEVVAVGAAIQGGVLKGEVKDVLLLDVTPLSLGVETAGGVFTKIIDKNTTIPCKKSQVFSTAVDNQPLVSVHVLQGEREMAADNKTLARFELVGIPPAPRGVPQIEVSFDIDANGIVHVSAKDLGTGKVQQVRVVSNSGLSEAEIQAMISDAQSHASDDKKKKELAELRNNADGLIYTTEKSLEEYASLLSEKDREEIKADLERLKEVLNTSDAAVLKESFQRLEGSAYRIADAIYTGQAS | 2

— paper PMC11019930, “DnaK duplication and specialization in bacteria correlates with increased proteome complexity” (mSystems, 2024)
